Here are results for 30 sequences from the nanobody polyreactivity screen of Harvey et al. (2022).

This data set can be described thus: yeast display, Sf9 membrane polyspecificity reagent, FACS + sequencing; frameworks hold sequencing errors. The method in brief: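 Sorting gates, low and high (top ~1%), were placed on anti-HA fluorescence to track expression and on streptavidin fluorescence to track reagent binding. A clone's polyreactivity label is taken from the gate it came out of. The reagent was 10% biotinylated, detergent-solubilized Sf9 membrane, applied for 1 hour at 4 °C to galactose-induced yeast display cells.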
In the case of “QVQLEESGGGLVQAGGSLRLSCAASGRIFIKNAMGWYRQAPGKVRELVAAISARGGSTYYADSVKGRFTISRDIAKNTVYLEMNSLKPEDTAVYDCAVDVYEPRYRRPLHHDYWGQGTQVTVSS”, the “polyreactivity (PSR sort gate)” value was “low polyreactivity”. Regarding “QVQLVESGGGLVQAGGSLRLSCAASGNIFPYYPMGWYRQAPGKERELVASISRSGGSTYYADSVKGRFTISRDNAKNTVYLQMNSLKPEDTAVYYCAKRTPYYGFGFFHPARGYGYWGQGTQVTVSS”, the “polyreactivity (PSR sort gate)” value is “low polyreactivity”.

Take “QVQLVESGGGLVQAGGSLRISCAASGYTFASYTMGWYRQAPGKERELVATISRGGGRTYYADSVKGRFTISRDNAKNTVYLQLNSLKPEDTAVYYCARPSTFFTGYRQAHFDYWGQGTQVTVSS”: the “polyreactivity (PSR sort gate)” value was “high polyreactivity”. With “QVQLVESGGGLVQAGGSLRLSCAASGRTFYIYAMGWYRQAPGTERELVAAITYGGGRTFYADSVKGRFTISRDKAKNTVYLQMNSLKPEDTAVYYCAADGRTLGRRYYYWGLGTQVTVSS” the entry was “high polyreactivity”.

In the case of “QVQLVESGGGLVQAGGSLRLSCAASGRTFDVYAMGWYRQAPGKERELVATISYRSARTYYADSVKGRFTISRDNAKNTVYLQMNSLKPEDTAVYYCAAYFETWHGVGYWGQGTQVTVSS”, the “polyreactivity (PSR sort gate)” value is “high polyreactivity”. For “QVQLVESGGGLVQAGGRLRLSCSASGSTFGYYAMGWYRQAHGKQRELDASITWTGGSTYYADSVKGRFTISRDNAKYTVYLLMNSLKPEDTAVYYCAAQLEASYWLWTGYGYLGQGTQVTVSS”, the “polyreactivity (PSR sort gate)” value is listed as “high polyreactivity”.

In the case of “QVQLVESGGGLVQAGGSLRLSCAASGNNFGVYAMGWYRQAPGTERELVAAIRYSTVSTYYADSVKGRFTISRDNAKNTVYLQMNSLKPEDTSVYYCAAQRRRYLPGHYYYWGQGTQVTVSS”, the “polyreactivity (PSR sort gate)” value is “high polyreactivity”. Consider “QVHHEETGGGLVQAGGSLRLSCSASGRTFVYYDMGWYRHATGKERQLVAAIDSSGSTYYADSVKGRFTISRDNAKNTVYLQMNSLKPEDSAVYYCGAGYWFFPYWYDYWGQGTQVTVSS”, for which the “polyreactivity (PSR sort gate)” value was “high polyreactivity”.

Take “QVQLVESGGGLVQAGGSLRLSCAASGATFWYNAMRWYREAPGKERELVAAITWTGDGTYYADSVKGRFTISRDNAKNTVYLQMNSLKPEDTAVYYCAAAYFQWSTSIVGLDAWYDYWGQGSQVTVSS”: the “polyreactivity (PSR sort gate)” value is given as “low polyreactivity”.

As for “QVQLVESGGGLVQAGGSLRLSCAASGFTFRYNAMGWYRQAPGKERELVAAISRSGGRTYYADSVKGRFTISRDNAKNTVYLQMNSLKPEDTAVYYCAAVAARITGYGYWGQGTQVTVSS”, the “polyreactivity (PSR sort gate)” value is “high polyreactivity”. For “QVQLVESGGGLVQAGGRLRLSCAASGSTFVRNAMGWYRQAPGKERELVAAITGTGDSTYYADSVKGRFTISRDNAKNTVYLQMNSLKPEDTAGYYCDANSDAYRYWYDYWGQGTQVTVSS”, the “polyreactivity (PSR sort gate)” value is listed as “low polyreactivity”. With “QVQLVESGGGLVQAAGSLRLSCAASGSTFTLNAMGWNRQAPGKERELVAAITSGGRTKYADSVKGRFTISRDNAKNTVYLQMNSLKPEDTAVYYCAATFAGGYGYWGQGTQVTVSS”, the “polyreactivity (PSR sort gate)” value is recorded as “high polyreactivity”.

“QVQLVESGGGLVQAGGSLRLSCAASGRIFAGYAMGWYRQAPGKERELVASIRSSGSTYYADSVKGRFTISRDNAKNTVYLQMNSLKPEDTAVYYCNKYVPYRHLWDYGYWGQGTQVTVSS”: the “polyreactivity (PSR sort gate)” value is reported as “high polyreactivity”. For the sequence “QVQLVESGGGLVQAGGSLRLSCAASGYTFFYYAMGWYRQAPGKERELVATISGNGGRTYYADSVKGRFTISRDNAKKTVYLQMNSLKPEDTAVYYCAALLYIRSVGYDYWGQGTQVTVSS”, the “polyreactivity (PSR sort gate)” value is on record as “low polyreactivity”. Under “QVQLVESGGGLVQAGGSLRLSCAAYGSIFDHYAMVWNRQAPGKERELVAAITYSDGSTYYADSVKGRFTISRDNAKNTVYLQMKSLKPEDTAVYYCAAYPRGSQRYNYWGQGTQVTVSS” stands “high polyreactivity”; under “QVQLVESGGGLVQAGGSLRLSGAASGNIFDNYAMGWYRQAPGKERELVAAITWSGGSTYYADSVKGRFTISRDNAKNTVYLQMNSLKPEDTAVYFCNTDYNHVFAYDHWGQGTQVTVSS”, “low polyreactivity”. For “QVQLVESGGGLVQAGGSLRLSCAASGFTFSRYAMGWYIQAPGKERELVAAITRGGSTNYADSVKGRFTISRDNAKNTVYLQMNSLKPEDTAVYYCAVRIRYSTNAYYYWGQGTQVTVSS”, the “polyreactivity (PSR sort gate)” value is reported as “high polyreactivity”. With “QVQLVESGGGLVQAGGSLRLSCAASGRTIVIYAMGWYRQAPGKERELVAAIRSGGRTNYADSVKVRFTISRDNAKNTVYLQMNSLIPEDTAVYYCATRGWLRSGYDYWGQGTQVTVSS”, the “polyreactivity (PSR sort gate)” value was “high polyreactivity”.

For “QVQLVESGGGLVQAGGSLRLSCAASGNTFGIYAMGWYRQAPGKERELVAAISSGTSTNYADSVKGRFTISRDNAKNTVYLQMNSLKPEDTAVYYCNADDQYQDVREDYWGQGTQVTVSS”, the “polyreactivity (PSR sort gate)” value is “low polyreactivity”.

Turning to “QVQLVESGGGLVQAGGSLRLSCAASGRIFPFYAMGWYRQAPGKERELVAAISTRGGSTYYADSVKGRFTISRDNAKNTVYLQMNSLKPADTAVYYCAADVQAVGYDYWGQGTQVTVSS”, the “polyreactivity (PSR sort gate)” value is recorded as “high polyreactivity”.

As for “QVQLVESGGGLVQAGGSLRLSCAASGITFGPYAMGWYRQAPGKERELVAAITWGGGSTYYADSVKGRFTISRDNAKTTVYLQMNSLKPEDTAVSYCNAEGSTTSRYLPYDYWGQGTQVTVSS”, the “polyreactivity (PSR sort gate)” value is given as “low polyreactivity”.

Take “QVQLVESGGGLVQAGGSLRLSCAASGSIFTYYAMGRYRQAPGKDRQLVAAISSNGGSTYYADSVKGRFTISRDNAKNTVYLQMNSLKPEDTAVYYCATVVNTWYQNGYEYWGQGTQVTVSS”: the “polyreactivity (PSR sort gate)” value is on record as “low polyreactivity”. Under “QVQIVESGGGLVQAGGSLRLSCAASGITFVPNAIGLYRQAPGKERELFDAITNGDSTNYADSVKGRFTISRDNAKNTVYLQMNSLKPEDTAVYYCAADSCAQRPNQGRVSLHYYWGQVTQVTVSS” stands “low polyreactivity”; under “QVQLVESGGGLVQAGGSLRLSCAASGFILYQNALGWYRQAPGKERELVAAITESDGITYYADSVKGRFTISRDNAKNTVYLQMNSLKPEDTAVYDCNTGFSYTYDYWGQGTQVTVSS”, “low polyreactivity”. With “QVQLVESGGGLVQAGGSLRLSCAASGSIFYQYGMGWYRQAPGKERELVAAITYDDDSTYYADSVKGRFTISRDNAKNTVYLQMNSLKPEDTAVYYCAAYYYKLEYDYWGQGTQVTVSS” the entry was “high polyreactivity”; with “QVQLVESGGGLVQAGGSLRLSCAASGSTFSFYAMGWYRQAPGKERELVAAIRAGTRTYYADSVKGRFTISRDNAKNTVYLQMNSLKPEDTAVYYCAATRRRYPYYYWGQGTQVTVSS”, “high polyreactivity”. With “QVQLVESGGGLVQAGGSLRLICAASGRIFFHYAMGWYRQAPGKVRELVAVISSTGGITNYADSVKGRFTISRDNAKNTVYLQMNSLKPEDTAVYYCNTVPRPFERYGYWGQGTQVTVSS” the entry was “low polyreactivity”; with “QVQLVESGGGLVQAGGSHRLSCAASGRIFKIYAMGWYRQAPGKERELVAAISRGGRTYYADSVKGRFTISRDNAMYTFYLLLNSLTPEDTAVYYCNLYAPDTYGINGYWGQGTQVSVSS”, “high polyreactivity”. As for “QVQLVESGGGLVQAGGSLRLSCAASGFTFGRYAMGWYRQAPGKERELVAAITWSGGTTTYYADSVKGRFTISRDNAKNTVYLQMTSLKPEDTAVYYCAADLYFYIYSYNYWGQGTQVTVSS”, the “polyreactivity (PSR sort gate)” value is listed as “low polyreactivity”. Take “QVQLVESGGGLVQAGGSLRLSCAASGSTFYIYAMGWSRQAPGKEREFVAAIDFSGSSTYADSVKGRFTISLDNAKNTVYLQMNSLKPEDTAVYYCAAYQIYQYYGPYDYWGQGTQVTVSS”: the “polyreactivity (PSR sort gate)” value was “low polyreactivity”.
